As a reminder, the koff is the rate constant with which the complex falls apart.

Drawing on publication PMC8948278 (2022), this text covers koff for 1 molecule.

For this assay, the target named is Recombinant SARS-CoV-2 S trimer protein (ACRO Biosystems SPN-C52H9) (SARS-CoV-2, UniProt P0DTC2). The experiment in a line: SPR. Background: In SPR one partner is held on a chip, and binding of the other changes the refractive index at the surface.

B1: KIH format bivalent MW01 (MW01/KIH) (antibody, V domains shown)
VH: EVQLVQSGAEVKKPGSSVKVSCKASGGTFSSFSISWVRQAPGQGLEWMGRIIPVLGIANYAQEVQGRVTITADKSTSTAYMELSSLRSEDTAVYFCTTDRFVEPATGPFFDYWGQGTLVTVSS
VL: EIVMTQSPATLSVSPGERATLSCRASQSVSSNLAWYQQKPGQAPRLLIYGASTRATGIPARFSGSGSGTEFTLTISSLQSEDFAVYYCQQYSNWLTFGGGTKVEIK
For B1, the koff came to 0.000408 s⁻¹.
